Experiments:
[1] = molecular target: full length human MSR1 with a C-terminal Myc tag, on HEK293.Myc.hMSR1 cells (human) (UniProt P21757); assay: ECL cell binding, HEK293.Myc.hMSR1 cells, 11 nM
[2] = molecular target: endogenously expressed human MSR1 on PMA-treated THP-1 cells (human) (UniProt P21757); assay: ECL cell binding, PMA-treated THP-1 cells, 11 nM
[3] = molecular target: human MSR1 extracellular domain expressed with a N-terminal nonahistidine tag (human) (UniProt P21757); assay: competition ELISA, plate-coated His9-hMSR1; 300 nM control antibody, competitor ligand biot-AGE-BSA
[4] = molecular target: human MSR1 extracellular domain expressed with a N-terminal nonahistidine tag (human) (UniProt P21757); assay: competition ELISA, plate-coated His9-hMSR1; 100 nM control antibody, competitor ligand Ac-LDL
[5] = molecular target: human MSR1 extracellular domain expressed with a N-terminal nonahistidine tag (human) (UniProt P21757); assay: competition ELISA, plate-coated His9-hMSR1; 1 µM control antibody, competitor ligand 10 nM Ox-LDL
[6] = molecular target: endogenously expressed human MSR1 on PMA-treated THP-1 cells (human) (UniProt P21757); assay: cell-based or functional assay
[7] = molecular target: endogenously expressed human MSR1 on PMA-treated THP-1 cells (human) (UniProt P21757); assay: confocal imaging, differentiated THP-1 cells, Alexa 488 secondary

Chain of human MSR1 extracellular domain expressed with a N-terminal nonahistidine tag (human) (P21757 other isoform, or with tags, fused parts or gaps): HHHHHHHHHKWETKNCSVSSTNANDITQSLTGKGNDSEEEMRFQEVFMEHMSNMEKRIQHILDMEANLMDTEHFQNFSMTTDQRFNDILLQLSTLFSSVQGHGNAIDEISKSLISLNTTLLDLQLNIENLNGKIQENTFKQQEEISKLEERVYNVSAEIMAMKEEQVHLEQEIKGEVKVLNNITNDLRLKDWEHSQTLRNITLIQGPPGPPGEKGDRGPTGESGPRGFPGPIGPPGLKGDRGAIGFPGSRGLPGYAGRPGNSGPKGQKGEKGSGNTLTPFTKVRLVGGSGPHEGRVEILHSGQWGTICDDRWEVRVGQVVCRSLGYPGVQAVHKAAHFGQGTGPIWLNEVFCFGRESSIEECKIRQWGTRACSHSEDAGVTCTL
Chain of endogenously expressed human MSR1 on PMA-treated THP-1 cells (human) (P21757 whole entry, the tested form may be a part): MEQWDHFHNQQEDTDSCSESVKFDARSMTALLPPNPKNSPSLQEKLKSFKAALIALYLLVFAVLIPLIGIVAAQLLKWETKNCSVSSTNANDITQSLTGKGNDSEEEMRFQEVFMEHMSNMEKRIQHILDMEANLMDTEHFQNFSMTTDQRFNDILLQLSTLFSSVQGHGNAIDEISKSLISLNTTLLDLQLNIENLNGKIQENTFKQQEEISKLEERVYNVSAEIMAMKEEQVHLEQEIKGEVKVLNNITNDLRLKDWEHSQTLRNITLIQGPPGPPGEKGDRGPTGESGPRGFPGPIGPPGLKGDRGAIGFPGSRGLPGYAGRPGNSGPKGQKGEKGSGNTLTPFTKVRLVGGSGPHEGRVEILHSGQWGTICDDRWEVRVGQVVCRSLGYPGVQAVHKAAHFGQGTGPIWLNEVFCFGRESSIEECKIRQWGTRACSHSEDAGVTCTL
Chain of full length human MSR1 with a C-terminal Myc tag, on HEK293.Myc.hMSR1 cells (human) (P21757 whole entry): as the sequence (P21757 whole entry, the tested form may be a part) above

Substance | ratio of binding signal (RLU) to isotype control [1] | ratio of binding signal (RLU) to isotype control [2] | % Blocking [3] | % Blocking [4] | % Blocking [5] | also measured
mIgG Isotype Control (antibody) | 1 fold | 1 fold | – | – | – | –
hIgG1 isotype control (antibody) | – | – | 4% | -8% | 3% | –
hIgG1 Isotype Control (antibody) | 1 fold | 1 fold | – | – | – | –
Isotype control (antibody) | – | – | – | – | – | Total Internalized RFU [6]: 1.7e+06 RFU; Total Binding at 4° C. (RFU) [7]: 186000 RFU; Total Binding at 37° C. (RFU) [7]: 1.09e+06 RFU
mIgG1 isotype control (antibody) | – | – | 7% | -4% | 16% | –

From US20190367631A1
